How the values were obtained:
[1] = system: LY-A2 cell; test: content of phospholipids of cell; format: cell-based, Chinese hamster; details: LY-A2/hCERT cell, FIG. 3(B)
Method: 3×10^6 cells per culture dish having the 150-mm diameter of CHO-K1 cell, LY-A2 cell, or LY-A2/hCERT cell was inoculated in 20 mL of F12/NBS medium, and cultured at 33° C. overnight. After it was washed twice in 10 mL of serum-free F12 medium, it was further cultured for 2 days in 20 mL of Nutridoma BO medium. After it was washed in PBS, the cells were collected by a method of scaping, suspended again in PBS, and lipid was extracted by a method described in Bligh et al (Can. J. Biochem. Physiol. 37, 911-917, 1959). The extracted lipid was separated using TLC whose development solvents were chloroform/methanol/acetic acid/H2O (volume ratio, 25:15:4:2). After the separated phospholipid on the TLC plate was colored by iodine vapor, the band of the respective separated phospholipid was scraped out from the plate. The scraped separated phospholipid was quantified by measuring phosphorus content by a method of Rouser et al (Lipids 1, 85-86, 1966).

[2] = ceramide release promotion activity from membrane; format: biochemical; details: 14C-ceramide in phosphatidylcholine/phosphatidylethanolamine membrane, 37° C. 30 minutes, 14C in supernatant; FIGS. 14, 16
Method: (§1) Hereinafter, the standard method will be described in detail, however, even if the described conditions are changed, a method of detecting ceramide release promotion activity having means for separating releasing ceramide by a centrifugation principally belongs to the present invention. The lipid membrane containing ceramide was prepared so that it contains 12.5 nCi (225 pmol) per sample of [palmitoyl-1-^14C]N-palmitoyl-D-ethyro-sphigosine (hereinafter, may be referred to as ^14C-ceramide) on the basis of the mixed lipid consisting of phosphatidylcholine and phosphatidylethanolamine derived from egg yolk at the ratio of 4:1 and its concentration becomes 2.5 mg/mL. This lipid membrane is required at the rate of 20 μL per one sample of the activity measurement. […]
(§2) hCERT protein or its recombinant protein described above as a protein sample to be targeted (under the standard conditions, the amount of protein corresponding to 450 picomoles, which is 2-fold molar equivalent amount of ceramide contained in the donating membrane was used) were messed up to 30 μL using the buffer 2 [50 mM Hepes-NaOH buffer (pH7.4) to which 100 mM NaCl and 0.5 mM EDTA have been added]. […] The activity for promoting ceramide release with hCERT was calculated by measuring the radioactive activity of ^14C in the supernatant fraction using a liquid scintillation counter. […]

[3] = releasing reaction assay with other lipids as substrate (specificity); format: biochemical; details: FIG. 15
Method: as §1, §2

[4] = system: LY-A cell; test: recovery of ceramide transport function of LY-A cell by hCERT stable expression; format: cell-based, Chinese hamster; details: FIG. 9
From the text: Also in the original LY-A cell to which retrovirus receptor has not been introduced, it has been ascertained as described below that ceramide transport function is recovered by hCERT expression. hCERT inserted pcDNA3.1/Neo plasmid was introduced into LY-A cell by performing lipofection, after G418 resistant cell was selected, transformed strain LY-A/hCERT was purified by a limited-dilution. Subsequently, the measurement of the sensitivity to MCD, metabolism labeling experiment of lipid using [^14C] serine and [^14C] choline and cell labeling using C5-DMB-Cer and fluorescene microscopy observation were similarly performed.

[5] = system: SM synthase; test: SM synthase activity, C6-NBD-Cer substrate, membrane fractions; format: biochemical, Chinese hamster; details: LY-A2/hCERT versus LY-A2 and CHO-K1 cells, FIG. 5
Method: The assay of SM synthase activity was carried out using C6—NBD-Cer as a substrate by a method of Hanada et al (Biochim. Biophys. Acta 1086, 151-156, 1991). However, the membrane fractions prepared respectively from CHO-K1 cell, LY-A2 cell and LY-A2/hCERT cell were used as an enzyme source.

B1: hCERT protein: human CERT protein having an amino acid sequence of SEQ ID NO:1 (protein)
chain: MSDNQSWNSSGSEEDPETESGPPVERCGVLSKWTNYIHGWQDRWVVLKNNALSYYKSEDETEYGCRGSICLSKAVITPHDFDECRFDISVNDSVWYLRAQDPDHRQQWIDAIEQHKTESGYGSESSLRRHGSMVSLVSGASGYSATSTSSFKKGHSLREKLAEMETFRDILCRQVDTLQKYFDACADAVSKDELQRDKVVEDDEDDFPTTRSDGDFLHSTNGNKEKLFPHVTPKGINGIDFKGEAITFKATTAGILATLSHCIELMVKREDSWQKRLDKETEKKRRTEEAYKNAMTELKKKSHFGGPDYEEGPNSLINEEEFFDAVEAALDRQDKIEEQSQSEKVRLHWPTSLPSGDAFSSVGTHRFVQKVEEMVQNHMTYSLQDVGGDANWQLVVEEGEMKVYRREVEENGIVLDPLKATHAVKGVTGHEVCNYFWNVDVRNDWETTIENFHVVETLADNAIIIYQTHKRVWPASQRDVLYLSVIRKIPALTENDPETWIVCNFSVDHDSAPLNNRCVRAKINVAMICQTLVSPPEGNQEISRDNILCKITYVANVNPGGWAPASVLRAVAKREYPKFLKRFTSYVQEKTAGKPILF
modifications: HeLa cell
With B1 the SM content [1] was “recovered to the wild type level”, the “activity for promoting ceramide release” value [2] was “detected depending on the amount of hCERT and the length of incubating time” and the “diacylglycerol releasing promotion, of the activity with respect to ceramide” value [3] was “about 5%”. For the same molecule, the “releasing reaction with respect to diacylglycerol, cholesterol, phosphatidylcholine, sphingomyelin, sphingosine” value ([3]; substrate changed from ceramide to other lipids) was “did not indicate a significant releasing reaction”, the “reactivity with respect to MCD, SM biosynthesis, C5-DMB-Cer transfer from ER to Golgi apparatus region” value [4] was “recovered to the nature of the wild type” and the “activity of the SM synthase” value [5] was “no difference”.

From patent US20080085859A1, “Drug Promoting Ceramide Transport, Base Sequence for Producing the Drug, Method of Measuring Activity of Promoting Ceramide Release and Method of Measuring Activity of Promoting Intermembrane Ceramide Transfer” (JAPAN SCIENCE AND TECHNOLOGY AGENCY, priority 2003, published 2008)
